Measurements taken from the nanobody polyreactivity screen of Harvey et al. (2022).

Experiment: yeast display, Sf9 membrane polyspecificity reagent, FACS + sequencing; frameworks hold sequencing errors
In short: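 Nanobodies from a synthetic yeast display library (Saccharomyces cerevisiae BJ5465), induced 36–48 hours with galactose, were stained 1 hour at 4 °C with 10% biotinylated, detergent-solubilized Sf9 membrane reagent, enriched on streptavidin microbeads, then FACS-sorted. Anti-HA (expression) and streptavidin (reagent binding) fluorescence set low and high (top ~1%) gates. Polyreactivity labels come from the gate of origin. Genes were colony-PCR amplified, MiSeq 2 × 250 sequenced and filtered by CDR length.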

For “QVQLVESGGGLVQAGGSLRLSCSASGSTFYYYAMGRYIQAPGKDRELVAAISSSGGTTYYADSVKGRFTISRDNAKNTVYLQMNSLKPEDTAVYYCAAQRYPSSLYQRFYYWGQGTQVTVSS”, which “polyreactivity (PSR sort gate)” value is on record?
Its value is “high polyreactivity”.

For “QVQLVESGGGLVQAGGSLRLSCSASGYTIDLYAKGWYRQAPGKERELVAAISIRGGSTYYADSVKGRFTISRDNAKNTVYLQMNSLKPEDTAVYYCATVTYRRSYIAYRGTGDYDYWGQGTQVTVSS”, which “polyreactivity (PSR sort gate)” value is on record?
The value was “low polyreactivity”.

With “QVQLVESGGGLVQAGGSLRLSCSAYGRTFNSYAMGWYRQAPGKERELVATISSGGSTKYADSVKGRFTISRDNAKNTVYLQMNSLKPEDTAVYYCNKVFPNLYIYVVRGLIEMDYWGQGTQVTVSS” as the sequence, how does the “polyreactivity (PSR sort gate)” value read?
Its value is “low polyreactivity”.

For “QVQLVESGGGLVQAGGSLRLSCSSSGSIFVKNAMGWYRQAPGKERELVATISTGGRTYYADSVKGRFTISRDNAKNTVYLQMNSLIPEDTAVYYCATDFYPRYLLRTYRPYYYCGQGTQVTVSS”, which “polyreactivity (PSR sort gate)” value is on record?
The value was “low polyreactivity”.

Which “polyreactivity (PSR sort gate)” value does the source give for “QVQLVESGGGLVQAGGSLRLSCSSSGYTFYGYAMGWCRQAPGKERELVADISWSGTNTNYADSVKGRFTISRDNAKNTVYLQMNSLKQDDTAVYYGAAGYYYRGFYTEDYWGQGTQVTVSS” here?
The value was “high polyreactivity”.

For “QVQLVESGGGLVQAGGSLRLSCTASGITSGSYAMGWYRQEPGKESELVAAISNSGSTYYADSVKGRFTISRDNAKNTVYLQMNSLKPEDTEVYYCAAVTVGGHRSHRSGRSDYWGQGTQVTVSS”, which “polyreactivity (PSR sort gate)” value is on record?
The value was “low polyreactivity”.

With “QVQLVESGGGLVQAGGSLRLSCTASGSIFSHNSMGWYRQAPGKERELVAAINQNGGITYYADSVKGRFTISRDNAKNTVYLQMNSLKPEDTAVYYCAARRYYRRPHKYDYWGQGTQVTVSS” as the sequence, how does the “polyreactivity (PSR sort gate)” value read?
The value was “high polyreactivity”.

With “QVQLVESGGGLVQAGGSLRLSCTASGSTFVAYAMGWYRQAPGKERELVAAITSSGGRTYYADSVKGRFTISRDNAKNTVYLQMNSLKPEDTAVYYCNVYPSRRRAVGESERYYWGQGTQVTVSS” as the sequence, how does the “polyreactivity (PSR sort gate)” value read?
The value was “high polyreactivity”.

Which “polyreactivity (PSR sort gate)” value does the source give for “QVQLVESGGGLVQAGGSLRLSCVASGSISQTYDMGWYRQAPGKERELVAAISSSGASTYYADSVKGRFTISRDNAKNTVYLQMNSLKPEDTAVYYCNADKFRRYGYWGQGTQVTVSS” here?
Its value is “high polyreactivity”.

Which “polyreactivity (PSR sort gate)” value does the source give for “QVQLVESGGGLVQAGGSLRLSCVPPDSSSLSMLWDGIDRRLGKKGSWLPVLTSRGVGTYYADSVKGRFTISRDNAKNTVYLQMNSLKPEDTAVYYCYARYEVFYRYDYWGQGTQVTVSS” here?
The value was “low polyreactivity”.

Which “polyreactivity (PSR sort gate)” value does the source give for “QVQLVESGGGLVQAGGSLRLSCVPSARTFYVYAMGWYRQSPGKQSELVAAIDYSGGDTYYADSVKGRFTISRDNAKNTVYLQMNSLKPVDTAVYYCAAEEYIPIYRYDYEYWGQGTQVTVSS” here?
Its value is “high polyreactivity”.

Which “polyreactivity (PSR sort gate)” value does the source give for “QVQLVESGGGLVQAGGSLRLSCVSSGFTFYFYAMGWYRQPPGKEREFVATITSNGGSTYYADSVKGRFTISRDNAKNTDYLQINSLKPEDTAVYYCNAGRYVRWWWYSPDDYWGQGTQVTVSS” here?
The value was “high polyreactivity”.

Which “polyreactivity (PSR sort gate)” value does the source give for “QVQLVESGGGLVQAGGSLRLSFAASGFIFGLNAKGWYRQAPAKERELVAAIRWRGDTTYYADSVKGRFTISRDNAKNTVYLQMKSLKPEDTAVYSCNAVVVPSRYDYWGQGTQVTVSS” here?
The value was “low polyreactivity”.

With “QVQLVESGGGLVQAGGSLRLSFAASGFIFPYYAMGWYRQAPGKERELVAAITSSGGSTYYADSVKGRFTISRDNAKNTVYLQMNSLKPEDTAVYYCNAYGRRTREYDYWGQGTQVTVSS” as the sequence, how does the “polyreactivity (PSR sort gate)” value read?
The value was “high polyreactivity”.

Which “polyreactivity (PSR sort gate)” value does the source give for “QVQLVESGGGLVQAGGSLRLSFAASGFTFWKNAMGWYRQAPGKERELVATISNGGNTYYADSVKGRFTISRDNAKNTVYLQMNSLKPEDTAVYYCATGYPSDLGREFDYWGQGIQVTVSS” here?
The value was “high polyreactivity”.

With “QVQLVESGGGLVQAGGSLRLSFAASGITFDHYAMGWYRQAPGKEREFVAAIDDIGGDTYYADSVKGRFTISRDNAKNTVYLQMNSLKPEDTAVYYCAADYGYYSRFYYWGQGTQVTVSS” as the sequence, how does the “polyreactivity (PSR sort gate)” value read?
The value was “low polyreactivity”.
